{"source": "patent US3940480A", "about": "“Process for production of stabilized powdery secretin preparation by lyophilization” (priority 1972, dated 1976)", "origin": "cited, not measured here", "settings": "kept at -20°C"}
{"substance": "Secretin", "values": [{"measurement": "Hormone activity of secretin kept at low temperature (in words)", "result": "gradually loses its hormone activity"}]}
